Assay results published in patent US20220267420A1 (Memorial Sloan Kettering, published 2022).

Columns and labels:
[1] = biological target: T1, HLA-A*02:01 on T2 cells without added peptide (human); experiment: flow cytometry; T2 cells without peptide, stained with Foxp3-#32 bispecific mAb
T1 construct: Also serves as the HLA partner in the T2 stabilization assay of the TLI analog peptides; also called T2 cells alone; HLA-A*02 molecule
Excerpt: (§1) TLI peptide was substituted with alanine at position 1, 2, 3, 4, 5, 7, 8 and 9, or with glycine at position 10. Position 6 was already alanine and it was left intact.

[2] = biological target: T2, A4: … on HLA-A2 of T2 cells (human, UniProt A*02:01); experiment: flow cytometry; T2 cells pulsed with the peptide at 50 ug/ml, stained with Foxp3-#32 bispecific mAb
T2 construct: on T2 cells; R4A; also called A4 analog of the Foxp3-TLI peptide/HLA-A*02:01
Excerpt: as §1

[3] = biological target: T3, A8: … on HLA-A2 of T2 cells (human, UniProt A*02:01); experiment: as above
T3 construct: on T2 cells; L8A; also called A8 analog of the Foxp3-TLI peptide/HLA-A*02:01
Excerpt: as §1

[4] = biological target: T4, A2: … on HLA-A2 of T2 cells (human, UniProt A*02:01); experiment: as above
T4 construct: on T2 cells; L2A; also called A2 analog of the Foxp3-TLI peptide/HLA-A*02:01
Excerpt: as §1

[5] = biological target: T5, A3: … on HLA-A2 of T2 cells (human, UniProt A*02:01); experiment: as above
T5 construct: on T2 cells; I3A; also called A3 analog of the Foxp3-TLI peptide/HLA-A*02:01
Excerpt: as §1

[6] = biological target: T6, A9: … on HLA-A2 of T2 cells (human, UniProt A*02:01); experiment: as above
T6 construct: on T2 cells; E9A; also called A9 analog of the Foxp3-TLI peptide/HLA-A*02:01
Excerpt: as §1

[7] = biological target: T7, A1: … on HLA-A2 of T2 cells (human, UniProt A*02:01); experiment: as above
T7 construct: on T2 cells; T1A; also called A1 analog of the Foxp3-TLI peptide/HLA-A*02:01
Excerpt: as §1

[8] = biological target: T8, A5: … on HLA-A2 of T2 cells (human, UniProt A*02:01); experiment: as above
T8 construct: on T2 cells; W5A; also called A5 analog of the Foxp3-TLI peptide/HLA-A*02:01
Excerpt: as §1

[9] = biological target: T9, A7: … on HLA-A2 of T2 cells (human, UniProt A*02:01); experiment: as above
T9 construct: on T2 cells; I7A; also called A7 analog of the Foxp3-TLI peptide/HLA-A*02:01
Excerpt: as §1

[10] = biological target: T10, G10: … on HLA-A2 of T2 cells (human, UniProt A*02:01); experiment: as above
T10 construct: on T2 cells; A10G; also called G10 analog of the Foxp3-TLI peptide/HLA-A*02:01
Excerpt: as §1

[11] = biological target: T11, CD3 on the Jurkat T cell line (human, UniProt P07766 23-207); experiment: flow cytometry on Jurkat cells (HLA-A2 negative)
T11 construct: whole, on cells; The result sentence says only 'CD3'; the epsilon chain comes from the description of the construct; also called human CD3 epsilon
T11 sequence (P07766 23-207): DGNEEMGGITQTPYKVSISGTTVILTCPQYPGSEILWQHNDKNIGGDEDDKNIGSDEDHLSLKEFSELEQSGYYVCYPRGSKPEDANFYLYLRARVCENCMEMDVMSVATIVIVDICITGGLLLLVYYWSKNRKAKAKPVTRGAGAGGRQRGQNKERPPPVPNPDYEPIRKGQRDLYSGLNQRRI
Description: Binding of the indicated bispecific mAb constructs to Foxp3+/HLA-A2+T lymphoma cell line MAC-2A and control cell line Jurkat. Since the bispecific mAb constructs were myc-tagged, the binding was tested by staining the cells with the bispecific mAbs, followed by a secondary mAb, mouse anti-myc conjugated to FITC. […] Binding strength is shown by median fluorescent intensity.

| Binder | binding result [1] | Median:PE-A [2] | Median:PE-A [3] | Median:PE-A [4] | Median:PE-A [5] | Median:PE-A [6] | Median:PE-A [7] | Median:PE-A [8] | Median:PE-A [9] | Median:PE-A [10] | binding result [11] |
| --- | --- | --- | --- | --- | --- | --- | --- | --- | --- | --- | --- |
| Foxp3-#32 bispecific mAb (bispecific antibody, Bispecific T cell engager format, made in CHO cells and purified through its His tag; also called FoxP3-#32 BsAb; Foxp3-bispecific mAb) QSVLTQPPSVSVAPGKTARITCGGNNIGSKSVHWYQQKPGQAPVLVIYYDSDRPSGIPERFSGSNSGNTATLTISRVEAGDEADYYCQVWDSSSDHYVFGTGTKVTVLGSRGGGGSGGGGSGGGGSLEMAEVQLVESGGGVVQPGRSLRLSCAASGFTFNNHAMHWVRQAPGKGLEWVAVISFDGDDKFYADSVKGRFTISRDNSRNTLFLQMNNLRPEDTAVYYCSRDPYHFASGSYSYFDYWGQGTLVTVSSTSGGGGSDVQLVQSGAEVKKPGASVKVSCKASGYTFTRYTMHWVRQAPGQGLEWIGYINPSRGYTNYADSVKGRFTITTDKSTSTAYMELSSLRSEDTATYYCARYYDDHYCLDYWGQGTTVTVSSGEGTSTGSGGSGGSGGADDIVLTQSPATLSLSPGERATLSCRASQSVSYMNWYQQKPGKAPKRWIYDTSKVASGVPARFSGSGSGTDYSLTINSLEAEDAATYYCQQWSSNPLTFGGGTKVEIKHHHHHH | no binding | 4450 | 122 | 603 | 5510 | 117 | 5620 | 861 | 3470 | 214 | – |
| Foxp3-#32 mAb, mouse IgG1 form (antibody, V domains shown, APC-conjugated in some stainings; the letters do not carry the dye., Mouse IgG1 form of the TCR-mimic antibody, used for flow cytometry and APC-conjugated in some stainings; Where the text says only 'Foxp3-#32 mAb' in the Treg and cell line stainings, the methods and legends name the mouse IgG1 form; also called mAb Foxp3-#32; mAb-Foxp3-#32) VH: EVQLVESGGGVVQPGRSLRLSCAASGFTFNNHAMHWVRQAPGKGLEWVAVISFDGDDKFYADSVKGRFTISRDNSRNTLFLQMNNLRPEDTAVYYCSRDPYHFASGSYSYFDYWGQGTLVTVSS VL: QSVLTQPPSVSVAPGKTARITCGGNNIGSKSVHWYQQKPGQAPVLVIYYDSDRPSGIPERFSGSNSGNTATLTISRVEAGDEADYYCQVWDSSSDHYVFGTGTKVTVL | – | – | – | – | – | – | – | – | – | – | no binding (tested: 1 ug/ml) |
